Kd data for 2 substances are collected here from article PMC12310515.

pKd: −log10 of the molar value.

This test has as its target RBK21 variable region (residues 148-299) (P. falciparum (field isolate Lek174)). Nature of the test: SPR.

KIR2DL1 (residues 27-221), sequence (P43626 27-221): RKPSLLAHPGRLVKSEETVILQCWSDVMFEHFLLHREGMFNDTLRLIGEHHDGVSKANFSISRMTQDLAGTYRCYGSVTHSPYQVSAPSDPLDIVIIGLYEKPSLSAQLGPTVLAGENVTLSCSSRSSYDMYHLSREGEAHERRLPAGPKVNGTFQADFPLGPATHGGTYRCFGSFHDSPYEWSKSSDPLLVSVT
KIR2DS1 (SPR protein), sequence (Q14954 22-245): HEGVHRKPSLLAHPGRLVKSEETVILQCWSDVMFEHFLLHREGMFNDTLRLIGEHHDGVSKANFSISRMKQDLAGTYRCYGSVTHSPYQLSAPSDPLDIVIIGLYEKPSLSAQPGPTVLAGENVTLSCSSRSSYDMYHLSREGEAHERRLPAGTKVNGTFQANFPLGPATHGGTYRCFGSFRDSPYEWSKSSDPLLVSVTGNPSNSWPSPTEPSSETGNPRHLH

As to “KIR2DL1 (residues 27-221) (from UniProt P43626 27-221) (domain or fragment)”, the pKd was 6.30. As for “KIR2DS1 (SPR protein) (from UniProt Q14954) (receptor)”, the figure is 5.77.
